PMC4011586

Target: human platelet-derived growth factor alpha receptor (human (endogenous in U373)) (UniProt P16234)
Chain of UniProt P16234 (P16234 24-1089): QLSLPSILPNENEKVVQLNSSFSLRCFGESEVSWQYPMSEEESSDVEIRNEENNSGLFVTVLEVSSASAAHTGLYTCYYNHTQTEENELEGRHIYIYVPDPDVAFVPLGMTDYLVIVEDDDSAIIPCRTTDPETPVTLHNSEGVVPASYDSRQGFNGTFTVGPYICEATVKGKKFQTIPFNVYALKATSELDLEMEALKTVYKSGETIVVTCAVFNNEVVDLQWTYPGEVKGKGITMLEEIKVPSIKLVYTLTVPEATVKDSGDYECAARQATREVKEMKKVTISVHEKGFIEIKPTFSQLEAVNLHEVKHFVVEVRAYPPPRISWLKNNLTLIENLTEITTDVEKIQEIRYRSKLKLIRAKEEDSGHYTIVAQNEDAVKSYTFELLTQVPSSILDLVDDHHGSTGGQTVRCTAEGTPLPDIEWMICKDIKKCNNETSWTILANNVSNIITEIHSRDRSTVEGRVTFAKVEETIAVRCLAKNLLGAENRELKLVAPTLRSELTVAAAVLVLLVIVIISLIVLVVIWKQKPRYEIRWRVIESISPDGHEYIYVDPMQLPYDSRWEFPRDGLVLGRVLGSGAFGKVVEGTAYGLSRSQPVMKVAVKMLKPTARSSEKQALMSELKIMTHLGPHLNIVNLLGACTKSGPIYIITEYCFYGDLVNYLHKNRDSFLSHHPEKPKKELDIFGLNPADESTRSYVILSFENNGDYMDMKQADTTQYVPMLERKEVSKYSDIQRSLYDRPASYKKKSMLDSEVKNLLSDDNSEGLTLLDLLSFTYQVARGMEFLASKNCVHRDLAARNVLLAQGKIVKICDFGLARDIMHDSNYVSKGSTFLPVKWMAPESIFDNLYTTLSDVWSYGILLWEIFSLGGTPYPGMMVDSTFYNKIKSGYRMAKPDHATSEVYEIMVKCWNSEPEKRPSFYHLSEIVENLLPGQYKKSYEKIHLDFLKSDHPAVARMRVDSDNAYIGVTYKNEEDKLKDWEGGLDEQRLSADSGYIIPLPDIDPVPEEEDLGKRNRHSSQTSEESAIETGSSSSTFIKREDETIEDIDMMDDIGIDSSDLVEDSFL

In the case of “recombinant HCMV glycoprotein B (from UniProt P13201 23-907) (ligand)”, the phosphorylation of PDGFRα in U373 cells stimulated with recombinant gB, cell based ELISA, relative to PDGF-AA (100%) is reported as 50%.
